Earlier results, collected in US12478627B2, “Irsogladine for the treatment of eosinophilic gastrointestinal diseases” (EPITHELION SCIENCE BIOTECH, S.L., priority 2019, dated 2025).

B1: Mepolizumab: mAb against IL-5 (antibody, chains of the INN, looked up, V domains shown)
VH: QVTLRESGPALVKPTQTLTLTCTVSGFSLTSYSVHWVRQPPGKGLEWLGVIWASGGTDYNSALMSRLSISKDTSRNQVVLTMTNMDPVDTATYYCARDPPSSLLRLDYWGRGTPVTVSS
VL: DIVMTQSPDSLAVSLGERATINCKSSQSLLNSGNQKNYLAWYQQKPGQPPKLLIYGASTRESGVPDRFSGSGSGTDFTLTISSLQAEDVAVYYCQNVHSFPFTFGGGTKLEIK
B2: Resolizumab: mAb against IL-5 (antibody, chains of the INN, looked up, V domains shown)
VH: EVQLVESGGGLVQPGGSLRLSCAVSGLSLTSNSVNWIRQAPGKGLEWVGLIWSNGDTDYNSAIKSRFTISRDTSKSTVYLQMNSLRAEDTAVYYCAREYYGYFDYWGQGTLVTVSS
VL: DIQMTQSPSSLSASVGDRVTITCLASEGISSYLAWYQQKPGKAPKLLIYGANSLQTGVPSRFSGSGSATDYTLTISSLQPEDFATYYCQQSYKFPNTFGQGTKVEVK

Tested on: EoE and EoGIDs
Settings: patients with EoE or EoGIDs, literature reports

| Molecule | clinical symptoms | tissue eosinophil infiltrate |
| --- | --- | --- |
| B1 | did not correspond with clinical improvement | significant reduction |
| B2 | did not correspond with clinical improvement | significant reduction |
